Experimental data reported in patent US20100022402A1, “Methods and Compositions for the In Vitro High-Throughput Detection of Protein/Protein Interactions” (priority 2004, published 2010).
Where no end group is shown, it is not given here.

T1: λD-Base display phage (gpD fused to basic aptamer [Gly-Arg]4) (bacteriophage lambda), P03712
T1 chain: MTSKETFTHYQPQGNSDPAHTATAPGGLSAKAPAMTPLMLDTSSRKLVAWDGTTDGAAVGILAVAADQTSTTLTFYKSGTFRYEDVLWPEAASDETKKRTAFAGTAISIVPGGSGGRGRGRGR

T2: λD-Acid display phage (gpD fused to acidic aptamer [Gly-Glu]4) (bacteriophage lambda), P03712
T2 chain: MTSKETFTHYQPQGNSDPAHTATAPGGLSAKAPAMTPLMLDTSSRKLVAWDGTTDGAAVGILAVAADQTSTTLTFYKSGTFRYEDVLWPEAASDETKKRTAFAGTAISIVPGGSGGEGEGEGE


Assays:
[1] = target: T1, λD-Base display phage (gpD fused to …); assay: competition: free peptide titrates λD-Acid:λD-Base co-infection (MOI 0.0025), loss of double resistant multilysogens
[2] = target: T1, λD-Base display phage (gpD fused to …); assay: apparent KD, calculated as the concentration of free peptide that results in an IC50 in the λD-Acid:λD-Base co-infection assay
[3] = target: T2, λD-Acid display phage (gpD fused to …); assay: competition: free peptide titrates λD-Acid:λD-Base co-infection (MOI 0.0025), loss of double resistant multilysogens
[4] = target: T2, λD-Acid display phage (gpD fused to …); assay: apparent KD, calculated as the concentration of free peptide that results in an IC50 in the λD-Acid:λD-Base co-infection assay

Binder | IC50 [1] [nM] | Kd [2] [nM] | IC50 [3] [nM] | Kd [4] [nM]
GEGEGEGE (not fully specified) [Acidic Aptamer (free synthetic peptide [Gly-Glu]4)] | 10 | 10 | – | –
GRGRGRGR (not fully specified) [Basic Aptamer (free synthetic peptide [Gly-Arg]4)] | – | – | 10 | 10
